The test system of data set [1] is MS2 coat protein. Kind of data set: apparent KD of MS2 coat protein; designed switch direction (-1 OFF switch, 1 ON switch): 1; higher = weaker reporter binding. In a few lines:
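For each design, the apparent KD is the median over clusters of curves fitted to normalised cluster fluorescence. Clusters held RNA switches with common flanks, transcribed on Illumina chips by stalled E. coli RNA polymerase. These were titrated with SNAP-549-labelled MS2 coat protein, doubling from 0.7 or 1.5 nM to 3 µM, without input, with 200 uM small-molecule ligand, or with an oligonucleotide input.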

For data set [2], the system named is MS2 coat protein. Put plainly: apparent KD of MS2 coat protein; higher = weaker reporter binding. The settings on record: Eterna round: R107. In a few lines: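 Designed RNA switches were transcribed on-chip from Illumina sequencing clusters. SNAP-549-labelled MS2 coat protein was titrated onto them in twofold steps from 0.7 or 1.5 nM to 3 µM in 100 mM Tris-HCl pH 7.5, 80 mM KCl, 4 mM MgCl2, either without or with constant ligand. Apparent KD reflects the per-design median of normalised cluster binding-curve fits.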

Setting [3] is: Eterna round: R95, input ligand: FMN 200 uM.
Where [4] appears, read: Eterna round: R95, input ligand: microRNA oligo, concentration not stated.
Where [5] appears, read: Eterna round: R95, input ligand: none.
Where [6] appears, read: input ligand: theophylline 20 uM.
[7] abbreviates: input ligand: theophylline 2 mM.
Where [8] appears, read: input ligand: tryptophan 2.4 mM.

Consider “AAGAAACAUGAGGAUCACCCAUGUGAGAAUAUGGGAGGAUAUACAAGGACGUAAGUCAAGGUAGAAGGCCUAAGAA [Mat - Same State 1 - Meechl mod - D139] (Eterna round: R96, puzzle: Same State 1)”, for which the “apparent KD of MS2 coat protein” value in data set [1] (input ligand: microRNA oligo, concentration not stated) was determined as 143 nM.
Turning to “AAGAAUCUAUCUCAGGAUAUCAUGUCAAAGACAUGAGGAUCACCCAUGUACCAGGAAACUGGUUAUGAGAAGGGAGAUAGAUUCA [Mat - Same State 2 - Mod - D31] (puzzle: Same State 2)”, the figures for the “apparent KD of MS2 coat protein” value in data set [1] (setting [3]), in data set [1] (setting [4]) and in data set [1] (setting [5]) were 98.6 nM, 118 nM and 79.6 nM, respectively.
On to “AAGAAUCUAUCUCAGGAUAUCAUGUCAAAGACAUGAGGAUCACCCAUGUACCAGGAAACUGGUUAUGAGAAGGGAGAUAGAUUCG [Mat - Same State 2 - Mod - D37] (puzzle: Same State 2)”, for which the “apparent KD of MS2 coat protein” value stood at 235 nM in data set [1] (setting [3]), 134 nM in data set [1] (setting [4]) and 233 nM in data set [1] (setting [5]).
With “AAGACAAGCUUUAUGUUCUUCCUAUUCCAACAUGAGGAUCACCCAUGUAGUCUGACGAUUGUGAGUGUAGUUGAGAU [JR_SHM208A_Sub027] (puzzle: Sensor for hsa-mir-208a)”, the “apparent KD of MS2 coat protein” value in data set [1] (setting [3]) came to 58.3 nM; in data set [1] (setting [4]), 76.9 nM; in data set [1] (setting [5]), 76.5 nM.
For the sequence “AAGAGAGAAAUACAGGAUAUGAGGAAAGGAACAUGAGGAUCACCCAUGUAAGAGAAAGGGAAAGAUCAGAAGGGUAGAGAAGAGA [JR_SS2_Sub001] (puzzle: Same State 2)”, the “apparent KD of MS2 coat protein” value was 76.6 nM in data set [1] (setting [3]), 66.1 nM in data set [1] (setting [4]) and 264 nM in data set [1] (setting [5]).
Turning to “UUGUUGUUUGGAAGGAGCGUGUAAGAUUAAGAACAUGAGGAUCACCCAUGUUUUAAGGGAACACAGGUAGGUCGCCGGGUGGUGG [11.R]”, the “apparent KD of MS2 coat protein” value in data set [2] (input ligand: arginine 13.2 mM) amounted to 15.5 nM; in data set [2] (input ligand: none) it was 13.9 nM; in data set [2] (setting [6]), 19 nM; in data set [2] (setting [7]), 14.8 nM; in data set [2] (setting [8]), 15.6 nM.
With “UUUAAAAUCAGAAGGAGCGUGAUAAACAUGAGGAUCACCCAUGUCGAAAAUUUAAUAUAAUCACAGGUAGGUCGCUGUAAUAUUU [Same State - Ariginine B]”, the “apparent KD of MS2 coat protein” value in data set [2] (input ligand: arginine 13.2 mM) worked out at 14.2 nM; in data set [2] (input ligand: none), 14 nM; in data set [2] (setting [6]) it was 18.6 nM; in data set [2] (setting [7]), 16.5 nM; in data set [2] (setting [8]), 14.2 nM.
“UUUGAUAGGACAGAUACCAGCGUGUUAUAGAACAUGAGGAUCACCCAUGUAGUGAUCAAGCGCCCUUGGCAGCUGGUUUGUUAGG [7.K]”: the figures for the “apparent KD of MS2 coat protein” value in data set [2] (input ligand: arginine 13.2 mM), in data set [2] (setting [6]) and in data set [2] (setting [8]) were 119 nM, 350 nM and 196 nM, respectively.
Take “UUUGCACAUGAGGAUCACCCAUGUACAGAUACCAGCCUCAUCUACGGCCCUUGGCAGCUGAGACAAUGGUGACAUGAUGGGCUUU [Istein]”: the figures for the “apparent KD of MS2 coat protein” value in data set [2] (input ligand: arginine 13.2 mM), in data set [2] (setting [6]) and in data set [2] (setting [8]) were 16 nM, 20.4 nM and 12.3 nM, respectively.
Consider “UUUUACAUGAGGAUCACCCAUGUGCGGCGCCGAGGACCGGUACGGCCGCCACUCGCAUGGGCAUGCCGCGAUAUCAUUCCUGAAC [theeternabot_sameState_MS2_Trp_A_43]”, for which the “apparent KD of MS2 coat protein” value in data set [2] (input ligand: arginine 13.2 mM) is 53.6 nM; in data set [2] (setting [6]), 249 nM; in data set [2] (setting [7]), 306 nM.
As for “UUUUUCAUAGGUUAUAGUUUAGAAACUGAAGGAGCGUGGUAAUACACAGGUAGGUCGCAGAUUUUACAUGAGGAUCACCCAUGUU [JR_ExcArginiA_Sub014]”, the “apparent KD of MS2 coat protein” value in data set [2] (input ligand: arginine 13.2 mM) worked out at 22.1 nM; in data set [2] (input ligand: none), 23.2 nM; in data set [2] (setting [6]), 27.3 nM; in data set [2] (setting [7]), 27 nM; in data set [2] (setting [8]) it was 25.6 nM.
In the case of “UUUUUUAACUGAAGGAGCGUCACAUGAGGAUCACCCAUGUAUUAGAUGAGAAUGAUCUUGUGGCAGGUAGGUCGCAGAGGAAGGG [#30 Exclusion - Arginine B]”, the “apparent KD of MS2 coat protein” value was found to be 521 nM in data set [2] (input ligand: arginine 13.2 mM); 327 nM in data set [2] (input ligand: none); 167 nM in data set [2] (setting [6]); 271 nM in data set [2] (setting [7]); 370 nM in data set [2] (setting [8]).

Source of the values: the supplement of paper PMC9170038.
